Measurements from patent US20180340025A1 (Novartis, published 2018).

T1: human LAG-3 expressed on cells (human, UniProt P18627 23-525)
T1 construct: whole, on cells; Treated as one protein; the host cell is named under assay; also called LAG-3-expressing CHO cells; LAG-3-transfected CHO cells
T1 sequence (looked up): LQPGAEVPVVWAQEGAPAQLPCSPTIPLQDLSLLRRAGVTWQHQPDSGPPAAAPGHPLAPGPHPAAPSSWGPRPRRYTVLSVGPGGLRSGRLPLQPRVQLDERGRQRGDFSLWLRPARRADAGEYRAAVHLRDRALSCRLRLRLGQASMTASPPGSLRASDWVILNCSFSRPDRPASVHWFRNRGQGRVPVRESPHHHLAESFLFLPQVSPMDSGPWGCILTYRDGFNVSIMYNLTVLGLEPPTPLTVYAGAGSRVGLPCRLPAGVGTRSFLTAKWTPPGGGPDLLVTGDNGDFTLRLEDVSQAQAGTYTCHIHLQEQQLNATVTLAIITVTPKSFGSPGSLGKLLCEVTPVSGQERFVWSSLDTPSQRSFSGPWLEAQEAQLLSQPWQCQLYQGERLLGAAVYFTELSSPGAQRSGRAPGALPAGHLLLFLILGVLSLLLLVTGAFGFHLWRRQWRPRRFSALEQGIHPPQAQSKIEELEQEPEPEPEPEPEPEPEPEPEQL

T2: LAG-3-huIgG1 Fc fusion protein (human, UniProt P18627 23-434, limits assumed)
T2 construct: also called LAG-3-Ig; soluble LAG-3-Ig; not shown: human IgG1 Fc
T2 sequence (looked up): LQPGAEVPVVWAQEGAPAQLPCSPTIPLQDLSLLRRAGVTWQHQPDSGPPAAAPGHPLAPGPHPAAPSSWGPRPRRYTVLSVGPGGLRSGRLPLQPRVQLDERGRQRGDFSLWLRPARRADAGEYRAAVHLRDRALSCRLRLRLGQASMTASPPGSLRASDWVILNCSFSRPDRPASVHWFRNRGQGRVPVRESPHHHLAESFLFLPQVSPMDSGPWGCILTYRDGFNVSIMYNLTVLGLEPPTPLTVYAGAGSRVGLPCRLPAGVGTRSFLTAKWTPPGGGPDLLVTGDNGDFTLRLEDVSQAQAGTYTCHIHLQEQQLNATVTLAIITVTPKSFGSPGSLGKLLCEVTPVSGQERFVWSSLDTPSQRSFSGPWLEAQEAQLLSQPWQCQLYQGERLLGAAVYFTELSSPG

B1: BAP050-hum11-Ser (antibody, human IgG4 S228P, kappa, V domains shown)
VH: QVQLVQSGAEVKKPGASVKVSCKASGFTLTNYGMNWVRQARGQRLEWIGWINTDTGEPTYADDFKGRFVFSLDTSVSTAYLQISSLKAEDTAVYYCARNPPYYYGTNNAEAMDYWGQGTTVTVSS
VL: DIQMTQSPSSLSASVGDRVTITCSSSQDISNYLNWYLQKPGQSPQLLIYYTSTLHLGVPSRFSGSGSGTEFTLTISSLQPDDFATYYCQQYYNLPWTFGQGTKVEIKR
notes: C84S in VHFW3 of BAP050-hum11; IgG4(S228P)/kappa; also called clone No. 11S
B2: BAP050-hum12-Ser (antibody, human IgG4 S228P, kappa, V domains shown)
VH: B1 VH
VL: EIVLTQSPDFQSVTPKEKVTITCSSSQDISNYLNWYQQKPGQAPRLLIYYTSTLHLGVPSRFSGSGSGTDFTLTISSLQPEDFATYYCQQYYNLPWTFGQGTKVEIKR
notes: C84S in VHFW3 of BAP050-hum12; IgG4(S228P)/kappa; also called huBAP050(Ser) clone
B3: murine anti-LAG-3 monoclonal antibody BAP050 (antibody, V domains shown)
VH: QIQLVQSGPELKKPGETVKISCKASGFTLTNYGMNWVRQTPGKGLKWMGWINTDTGEPTYADDFKGRFAFSLETSASTASLQINNLKNADTATYFCARNPPYYYGTNNAEAMDYWGQGTAVTVSS
VL: DIQMTQTTSSLSASLGDRVTISCSSSQDISNYLNWYQQKPDGTVKVLIYYTSTLHLGVPSRFSGSGSGTDYSLTISNLELEDIATYYCQQYYNLPWTFGGGTKLEIK
notes: also called murine mAb; parent murine mAb
B4: BAP050-hum05-Ser (antibody, human IgG4 S228P, kappa)
heavy: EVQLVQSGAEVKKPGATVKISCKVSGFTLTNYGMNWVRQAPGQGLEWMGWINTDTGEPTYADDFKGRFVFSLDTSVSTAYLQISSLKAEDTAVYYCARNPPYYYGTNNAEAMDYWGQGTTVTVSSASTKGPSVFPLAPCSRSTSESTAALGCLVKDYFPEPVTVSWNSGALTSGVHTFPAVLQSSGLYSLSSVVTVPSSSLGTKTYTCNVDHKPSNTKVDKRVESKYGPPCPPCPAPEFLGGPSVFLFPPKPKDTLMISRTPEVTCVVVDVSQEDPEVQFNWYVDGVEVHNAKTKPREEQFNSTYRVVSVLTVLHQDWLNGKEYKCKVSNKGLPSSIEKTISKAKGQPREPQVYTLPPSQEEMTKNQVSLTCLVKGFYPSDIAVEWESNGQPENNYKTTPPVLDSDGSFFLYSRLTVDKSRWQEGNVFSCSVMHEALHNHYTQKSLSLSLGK
light: EIVLTQSPATLSLSPGERATLSCSSSQDISNYLNWYQQKPGKAPKLLIYYTSTLHLGVPSRFSGSGSGTDFTFTISSLEAEDAATYYCQQYYNLPWTFGQGTKVEIKRTVAAPSVFIFPPSDEQLKSGTASVVCLLNNFYPREAKVQWKVDNALQSGNSQESVTEQDSKDSTYSLSSTLTLSKADYEKHKVYACEVTHQGLSSPVTKSFNRGEC
notes: C84S in VHFW3 of BAP050-hum05; IgG4(S228P)/kappa; also called clone No. 5S; huBAP050(Ser) clone

Assays:
[1] = target: T1, human LAG-3 expressed on cells; assay: FACS competition: serial dilutions of the test mAb against a constant concentration of FITC-labeled murine BAP050 on LAG-3-expressing CHO cells; MFI of bound labelled mAb
[2] = target: T1, human LAG-3 expressed on cells; assay: FACS, human LAG-3 transfected 300.19 cells; human LAG-3 transfected 300.19 cells
[3] = target: T2, LAG-3-huIgG1 Fc fusion protein; assay: competition binding assay, LAG-3-Ig binding to MHC class II on Raji cells
[4] = target: T1, human LAG-3 expressed on cells; assay: FACS, human LAG-3 transfected CHO cells; human LAG-3 transfected CHO cells
[5] = target: T1, human LAG-3 expressed on cells; assay: FACS, human T cells; human T cells

Binder | binding result [1] | Kd [2] [nM] | IC50 [3] [nM] | Kd [4] [nM] | Kd [5] [nM]
B1 | binds | – | – | – | –
B2 | binds | – | – | – | –
B3 | – | 13.6 | 2.3 | 0.2 | 0.26
B4 | binds | – | – | – | –
